Test results as given in the DeepSol protein solubility set.

Assay: soluble on expression in E. coli; label from the status in PepcDB or PDB records

Row | Sequence | soluble on expression in E. coli
1 | MGSDKIHHHHHHMQDSMLSGLFGALTTEHRLNNIANNLANVNTNGYKRDVLAFKDTMALFAHDEIMEPMANVRSKKLFPEPLHVARPRIAVARTDFSQGSFHYTSDPLDLAISGNGFFKVRTPEGEFYTRNGHFRQTSDGQLVTMQGWPVLSEGGDINLPQGKNLQVASDGRIAVDGVDVGQLQVVTVSDLEGLEKLGGNLYRLREGSTAGEVPVGPDVIVSQGYIETSNVEVVNEMVNMIETQRQFEAYQKVMQTSDTVDRDAITKIGRGR | not soluble
2 | LEPRHAMLLRCRLPGGVITTKQWQAIDKFAGENTIYGSIRLTNRQTFQFHGILKKNVKPVHQMLHSVGLDALATANDMNRNVLCTSNPYESQLHAEAYEWAKKISEHLLPRTRAYAEIWLDQEKVATTDEEPILGQTYLPRKFKTTVVIPPQNDIDLHANDMNFVAIAENGKLVGFNLLVGGGLSIEHGNKKTYARTASEFGYLPLEHTLAVAEAVVTTQRDWGNRTDRKNAKTKYTLERVGVETFKAEVERRAGIKFEPIRPYEFTGRGDRIGWVKGIDDNWHLTLFIENGRILDYPARPLKTGLLEIAKIHKGDFRITANQNLIIAGVPESEKAKIEKIAKESGLMNAVTPQRENSMACVSFPTCPLAMAEAERFLPSFIDNIDNLMAKHGVSDEHIVMRVTGCPNGCGRAMLAEVGLVGKAPGRYNLHLGGNRIGTRIPRMYKENITEPEILASLDELIGRWAKEREAGEGFGDFTVRAGIIRPVLDPARDLWD | soluble
3 | LSGSIYVLGGGENLKVTMMDAALKYAEANIPVIPLHWICEDGSCSCKTRSDCDSKGKHSLYTGWYNNSTTDVEQIRKWWTNVNVNKNLVLSKVS | not soluble
4 | IEEGKIVFAVGGAPNEIEYWKGVIAEFEKKYPGVTVELKRQATDTEQRRLDLVNALRGKSSDPDVFLMDVAWLGQFIASGWLEPLDDYVQKDNYDLSVFFQSVINLADKQGGKLYALPVYIDAGLLYYRKDLLEKYGYSKPPETWQELVEMAQKIQSGERETNPNFWGFVWQGKQYEGLVCDFVEYVYSNGGSLGEFKDGKWVPTLNKPENVEALQFMVDLIHKYKISPPNTYTEMTEEPVRLMFQQGNAAFERNWPYAWGLHNADDSPVKGKVGVAPLPHFPGHKSAATLGGWHIGISKYSDNKALAWEFVKFVESYSVQKGFAMNLGWNPGRVDVYDDPAVVSKSPHLKELRAVFENAVPRPIVPYYPQLSEIIQKYVNSALAGKISPQEALDKAQKEAEELVKQYS | soluble
5 | AGSMEDIPVEEAVLTGVATDNSEAKITVLGIPDSPGSASAVFRALADAEINIDTVLQNISSLEDNRTDITFTCPRADGPHAMELLRNLQAKNDWQNVLYDDQIGKVSLVGAGMKSHPGVTAEFCEALRDAGVNIELISTSEIRISVLIRESDVDVAARAIHEKFELGGETEAIVYAGTGR | not soluble
6 | MSKSEKQQLAPWVEKYRPKVLADIVGNENIVERLKVIGHEGNVPNIVLSGPPGCGKTTSVWALARELLGDKVKEAVLELNASDERGIDVVRHRIKTFAQTKVTLPEGRHKIIILDEADSMTDGAQQALRRTMEMYTKTTRFALACNQSEKIIEPIQSRCALLRYTKLSPVQLLTRVKEVAKAEKVNYDDGGLEAILFTAQGDMRQALNNLQATVNAYELVNKENVLKVCDEPHPDLMIKMLHYCTDRKFFEASKIIHEFHRLGFSSDDIVSTLFRVVKTVELSKNVSEQLRMEYIRQIAMCHMRIVQGLTSKLQLSRLIADLCRVSAAATATSA | not soluble
7 | GMDKQAILDNIHQTWQEEANAISRLPEVTSEEALVKTVEKIAECTGKIVVAGCGTSGVAAKKLVHSFNCIERPAVFLTPSDAVHGTLGVLQKEDILILISKGGNTGELLNLIPACKTKGSTLIGVTENPDSVIAKEADIFFPVSVSKEPDPFNMLATASTMAVIASFDAVIVCLMTYMNYTKEQFSVIHPGGAVGNKLLNK | soluble
8 | MGTRCAVTPELRFVLAFPDVYEVGMSHLGLQILYGVLNTLDGVAAERAYAPWPDREAQLRAEGIPLATLESGTSLDRADIVGFTLQYELSYTNILNMLDLAGIPLLASERDERHPLIIGGGPCACNPEPLADFFDAFLLGDGEEAVIEIAEAFRAWKRAGGARSGLLERLAGIAGVYVPSFFAVRYGDNNRIAAVEPLRPDYGPVKRRFLAELEPAAYPTAPVVPFLKTIHDRVSVEISRGCTRGCRFCQAGYLYRPVRERSPEKILALVEETLRATGYDEISLLSLSTGDYGCLTPLLTELMARYASERIAVSLPSMRVGSLNDELVEAIRTVRKTGFTLAPEAGSERLRRVINKGISEEDLLRNAFEAYSHGWRLIKLYFMIGLPGETEEDLHGIVELARKVKMEGRRAGSGGEVNVSVSTFVPKAHTPFQWEPQIPVGEILEKQGLLRRELRARKLVFKWHDAPLSFMEGVFARGDRRLGAALRRAWELGCRFDGWGDRFDEAAWRTAFEETGIDPAFYHRRREPDEVLPWGHLDFGVTREFLLRELELSRQGAATEDCRTGRCTGCGVCDFSQVRLRLADDGLEHHHHHH | not soluble
9 | MQRRGQLSRRLVNSADRDPSDENSLSRAPAPACTSRGTHVVETTSLKRHSKVLRSQDASGTAESVNSQTPDDEVDHTLWTLVREVSDAEAAFWALRNDSRLLGFVLRSQLLALVHDDSSVTDFLEAAQQPTDVGDVQAEFILCWVPVPGGPAILWRADYQRLIEEQVARRLSELEDPARKAALWGTTREQVERDTHIRAADGSCWLRTLPCPPSVIRALTQGQKALVQQVKRMGRYGRLPLHRAELLRLSRTCFSARFHILDAVGCGTLALDAQNTLSKEPYLCLPEVRTTNIVDSGEIGF | not soluble
10 | GPGSMRAEKVTVSPAGEGAAPLFVFGYGSILWKQQFEYLRALPCCVHGYKRVFYQGSTDHRGVPARPGRVVTLLTCGDPEAWVGGVAFELPVEEEKREKILAQLDDRESGGYEREEVTLYDIKTHERLHLPPGAVCLCYRATEDNPEYLGEAKDEAIAEQILSCEGLSGPNSEYLFKLAEALRKLESADQHVFAVETAALHIMKAQNVPE | soluble
11 | MGSDKIHHHHHHMQLVFDFPVNPKYSLDNFVICSGNETAYRFVRRLTDDEGAENLLYLHGPSGSGKTHLLMAIGAHFSARAGLSSVPCISFKDVDEVYGGEYPAEAVSKLAERFRNAPALLVDDLHLIPDQQAVRVELWQLFNDFYQAGRPIAITGLYPPKELPTIDDHLISRLLWGLVARVDISDDDSRRLIMKKLADDRQIVLPADVIDYLLLHVRRDVPSLIEALDAISRYALAAKRKVSVRLAREALAFHS | not soluble
12 | MAFSAPEPELSVVVPTLNEAETVATLLAALAAQRDVALELLLCDGGSTDGTAALVRGRAGDLPFPVTVTETPPGRGRQMNAGAAAARGATFLFLHADSIIADPLALRRGLDHLAAARRSDKRAAGHFRLRFAGDSPSPLAYRFYERKARLHRPGCTHGDQGLLIPREFFDQVGPFDEGLPILEDVRLAERIAAMGTWVLLPAEIITSARRFETEGLRERQTLNAILMNFAAIGWQQGVEELVAGYRSQDRSGRLRLGPHLARIAGLTAALPRQERLRLWYLTGGYVRGNAWQIPLFLDVRNAWRRGGDDGATPLLSLHDRWFDLLTDNPAGRAAAALMTFLWFRLTLRREMKDWPGILRTPLEHHHHHH | not soluble
13 | MSDKLPYKVADIGLAAWGRKALDIAENEMPGLMRMRERYSASKPLKGARIAGCLHMTVETAVLIETLVTLGAEVQWSSCNIFSTQNHAAAAIAKAGIPVYAWKGETDEEYLWCIEQTLYFKDGPLNMILDDGGDLTNLIHTKYPQLLPGIRGISEETTTGVHNLYKMMANGILKVPAINVNDSVTKSKFDNLYGCRESLIDGIKRATDVMIAGKVAVVAGYGDVGKGCAQALRGFGARVIITEIDPINALQAAMEGYEVTTMDEACQEGNIFVTTTGCIDIILGRHFEQMKDDAIVCNIGHFDVEIDVKWLNENAVEKVNIKPQVDRYRLKNGRRIILLAEGRLVNLGCAMGHPSFVMSNSFTNQVMAQIELWTHPDKYPVGVHFLPKKLDEAVAEAHLGKLNVKLTKLTEKQAQYLGMSCDGPFKPDHYRY | soluble
14 | MIREAQRSELPAILELWLESTTWGHPFIKANYWRDCIPLVRDAYLANAQNWVWEEDGKLLGFVSIMEGRFLAAMFVAPKAVRRGIGKALMQYVQQRYPHLMLEVYQKNQPAIDFYRAQGFHIVDCAWQDETQLPTWIMSWPVVQTL | not soluble
